Assay [1] has as its target T1, glucagon receptor (UniProt P47871 26-477, limits assumed). Briefly: cell-based or functional assay.
In assay [2] the target is T1, glucagon receptor. In words: cell-based or functional assay. This is another data set of the same source.

Where two headings read alike, the source gives them in different places. Numbered stars: 1 amine (or outer) side, 2 acyl side, 3 side chain; on linkers, the order of the positions; unused ones are H or OH. Square brackets hold non-standard residues; d marks the D form. Side chains are listed from the residue outwards. Ends that are not written are not given here. * marks the point of attachment. C18 diacid = O=C(O)CCCCCCCCCCCCCCCCC(=O)*; γGlu = O=C(O)[C@H](CCC(=O)[*:2])N[*:1]; Orn = NCCC[C@H](N)C(=O)O; AEEA = NCCOCCOCC(=O)O

T1 sequence (P47871 26-477 limits assumed): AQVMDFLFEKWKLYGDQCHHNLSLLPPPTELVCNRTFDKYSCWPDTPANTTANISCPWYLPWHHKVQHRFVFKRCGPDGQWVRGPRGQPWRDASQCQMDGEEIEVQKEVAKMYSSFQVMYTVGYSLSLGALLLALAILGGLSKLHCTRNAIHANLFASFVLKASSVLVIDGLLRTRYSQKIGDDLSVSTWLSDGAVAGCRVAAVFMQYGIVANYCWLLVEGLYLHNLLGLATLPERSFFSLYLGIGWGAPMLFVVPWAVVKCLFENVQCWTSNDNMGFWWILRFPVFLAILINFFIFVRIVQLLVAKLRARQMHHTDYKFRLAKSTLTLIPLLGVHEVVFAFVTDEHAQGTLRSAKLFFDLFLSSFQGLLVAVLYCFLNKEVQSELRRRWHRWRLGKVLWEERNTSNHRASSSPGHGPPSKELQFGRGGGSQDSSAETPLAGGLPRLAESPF

In the case of HSQGTFTSDYSKYLDSKKAQEFV[Orn]([AEEA-AEEA-γGlu-C18 diacid])WLLST, in the assay with glucagon receptor [1], the “Assay (I) Glucagon [EC50]” value was 0.036 nM.

B1: N^ε24-([2-[2-[2-[[2-[2-[2-[[(4S)-5-hydroxy-4-[(18-hydroxy-18-oxooctadecanoyl)amino]-5-oxopentanoyl]amino]ethoxy]ethoxy]acetyl]amino]ethoxy]ethoxy]acetyl])[D-Ser … (peptide)
peptide: H[dS]QGTFTSDYSKYLDEQAARDFVK([AEEA-AEEA-γGlu-C18 diacid])WLLNT-NH2
modifications: N-terminus assumed
SMILES: CC(C)C[C@H](NC(=O)[C@H](Cc1ccc(O)cc1)NC(=O)[C@H](CCCCN)NC(=O)[C@H](CO)NC(=O)[C@H](Cc1ccc(O)cc1)NC(=O)[C@H](CC(=O)O)NC(=O)[C@H](CO)NC(=O)[C@@H](NC(=O)[C@H](Cc1ccccc1)NC(=O)[C@@H](NC(=O)CNC(=O)[C@H](CCC(N)=O)NC(=O)[C@@H](CO)NC(=O)[C@@H](N)Cc1c[nH]cn1)[C@@H](C)O)[C@@H](C)O)C(=O)N[C@@H](CC(=O)O)C(=O)N[C@@H](CCC(=O)O)C(=O)N[C@@H](CCC(N)=O)C(=O)N[C@@H](C)C(=O)N[C@@H](C)C(=O)N[C@@H](CCCNC(=N)N)C(=O)N[C@@H](CC(=O)O)C(=O)N[C@@H](Cc1ccccc1)C(=O)N[C@H](C(=O)N[C@@H](CCCCNC(=O)COCCOCCNC(=O)COCCOCCNC(=O)CC[C@H](NC(=O)CCCCCCCCCCCCCCCCC(=O)O)C(=O)O)C(=O)N[C@@H](Cc1c[nH]c2ccccc12)C(=O)N[C@@H](CC(C)C)C(=O)N[C@@H](CC(C)C)C(=O)N[C@@H](CC(N)=O)C(=O)N[C@H](C(N)=O)[C@@H](C)O)C(C)C
As for B1, the “Assay (I) Glucagon [EC50]” value with glucagon receptor [2] worked out at 0.137 nM.
For HSQGTFTSDYSKYLDSKKAQEFVQWLLNK([AEEA-AEEA-γGlu-C18 diacid]), in the assay with glucagon receptor [1], the “Assay (I) Glucagon [EC50]” value was 0.053 nM.
The same measure, in the same setting: then HSQGTFTSDYSKYLDSKKAQEFVK([AEEA-AEEA-γGlu-C18 diacid])WLLDT, with 0.051 nM; and HSQGTFTSDYSKYLDSKKAQEFVQWLLNT [[K^17,K^18, E^21, L^27] Glucagon], with 0.003 nM.

Source of the values: patent publication US20160002311A1 (Novo Nordisk, published 2016).
